Consider 19 sequences from the DeepSol protein solubility set.

This data set can be described thus: soluble on expression in E. coli; label from the status in PepcDB or PDB records.
For the sequence “AMRQCAIYGKGGIGKSTTTQNLVAALAEMGKKVMIVGCDPKADSTRLILHSKAQNTIMEMAAEAGTVEDLELEDVLKAGYGGVKCVESGGPEPGVGCAGRGVITAINFLEEEGAYEDDLDFVFYDVLGDVVCGGFAMPIRENKAQEIYIVCSGEMMAMYAANNISKGIVKYANSGSVRLGGLICNSRNTDREDELIIALANKLGTQMIHFVPRDNVVQRAEIRRMTVIEYDPKAKQADEYRALARKVVDNKLLVIPNPITMDELEELLMEFGIMEVEDESIVGKTAEEV”, the “soluble on expression in E. coli” value is recorded as “soluble”.
As for “GTEDTFWKDETDFNLALTSCYTPLKNALNGGYYGTRGVMLRIARADEVDFRNDISDVYTVNRFTNSNTNSLTQGMFYQFYNALYRTNSIMQKLEEKKEQFSTDFQNSVKGECLFIRGFYLFQLAKEFKDAPLRLTASQSPSTFPLAKSSQADIWAQAKEDLKTAASLLPITNKIGKPTQGAAYAALGKIYVYEENWQEAINVLEPLTQNPYTYKLVEDFNWNFDDTHENNAESIFELLIEDVGGTDLWGDGENINSTQSNTRPKEYAAAEVGGWYEANPTQQIMDIFWKEKDKDGNFDYRARCSVAWDYEGCTYYQRPFREVFAQDKWKTYWILKYQNWKTQKDEPAPPKSFINERAIRYADVLLMLAEAYMNKGALDTSIGYINQIRRRANLNDYSGPITKEGVFEDLVHQRAIEFFVEGERFYDLRRWGLLEQTLKTCDDTRYKNYQTGKSDNINKFNYFPIPAKELDTNPLCTPSEGW”, the “soluble on expression in E. coli” value is recorded as “soluble”.
For the sequence “MPFLPPLTPPTELYLGIQLPNPISILVNYLPVSQTPIETLRNLVYSCNINTLAIDEFMTWPSLLQPESTFRSYFELLVERGSIPAVYLEGVRQASNFVTVAQGLSVMTTVALSDPFACFATGLFLTCTGNHLDFLPISEKFWEMTPTLEAGHAVAEMVMYHISQLHTENARRWERSWRFVHPPSCVGQGDCYILLEAKLLRFKLLYSALLSSLLV”, the “soluble on expression in E. coli” value was “not soluble”.
In the case of “MTNEEPKSPEKVERRRSTQEDSEKDKKRSRDDRKTEKRTHDRDRKRNRSRSRSRSRSPKRSRRDKKEEKQEQEEEDGEIRDTTPPAPEKPRQLTARELERQRIIEEELKSGKHDEHDDDPVWSMKKAQAEKKSRMCPYLDTIDRSVLDFDFEKQCSVSLSHQNVYACMVCGKYFQGRGTNTHAYTHALETDHHVFLNLQTLKFYCLPDNYEVIDPSLEDIKYVLKPTYTKEMIASIDKQSKMVRAYDDSTYFPGVVGLNNIKANDYCNAILQALSAVRPLRNWFLKESNYTSIKRPPGDKLTLLPQRFGELIRKLWNPRALRTHVSPHEMLQAVVVCSNKKFQFIKQNDAADFMLFLLTTLHSALNGTDKKPSIISKTFRGRMRQYSRRVIPAEDTDEEKYMKLRMPEYQEKVIESPFLYLTLDLPSAPLYRDVQLQNIIPQVPLSTLLEKFDGKTEKEYPTYNDNNIMKRFELLQLPDFLIITYKRFQKNQWFVEKNPTIVNFPIANVDFYDCLAKDARANHKYTTYDLVANVVHEGTFKDGNYRIQIVHEGSGKWFELEDLHVKDLLPQMIVLAESYIQIWRLNKEQTRDERAEGEPMQN” it was “not soluble”; in that of “MSLGVTVSKNEAQRLENLTRDALLSTRRLSLIVDLDQTIIHTTVDPTVAEWMDEIHREEMKDAQEKANVPTEEVKGKGEETTTPPGSPGPGALGITVESPKEKNPNAEALRDVAKFQIADDLPPGYVKLKTKTTKGQNPPESEGRWYFTKPRPGLQRFLDEMCQLYEMHVYTMGTRTYADAIVKVIDPDGKIFGGRILSRDESGSFSSKNLKRLFPTDTSMVVVIDDRSDVWGDCPNLVKVVPYDFFLGIGDINSSFLPTNKSTEGHHHHHH”, “soluble”.
In the case of “MEKHLLISKGCKGWGGPLTITPGQGKKIAYITGGIRPPVVDRLSELTGWPSIDVFKNGEPPAEEIGLMVIDCGGTLRCGLYPKRGIPTINLHPTGKSGPLAEFIHEGIYVSGVTPACIEMVWPQGEGGKLGIVADDLTGATTVGVLLARSGLKTAAFFDTESFARNEVEYPAMVVSSDSRPLPKAEAQHKVSAAVKQLQARGAHYFTKRIDTTLRGGIGFEIDAMLEQLPQETVAVVVPAMPQSRRILVGGYSVIDSVALSRTDVARDVRTPVTESWVPGLLAAQTHHQVGHIALTSVMKGEGQIQQDLQEQQQRGVRVIVVDAITVDDVDAIAGAVVALNWNVLTVDPGPFTERLAVRRGLMREARSSAPASLTADGQRGSILIVAGSATPVTKKQLQYLIANDARVCHIPVDAELLVDRKNAAEIEVNRVVQHARQCVPAQHNALFVFESALTGRLLNLQEEEQRFGLAHGEAAQNINHGLGSIVREVLNCASGEIKGLYMTGGDTMVNVLKELGATGIEMIDYVIPQTDMVRIIGGDYAGLICVGKGGLTGPEDIISIIVDRIYQEAQ” it was “not soluble”; in that of “MQSATDVAEYCKYDGFDGLKRAISLSDEEILNELDIAHLRGRGGAAYPLGKKWRHLYHAKGTTKYIVCNADEGEPGTFKDKVLLSEDPLSVIEGMIIAGYLFSAKAGYIYMRGEYRRIQKTFQEALDNARQAGFLGENILGIEGFNYDITIISGAGAYICGENSALLNSIEGKTGRPRVKPPHLADVGLYLQPTLVNNVESFASVPVILREGGQAFLEMGTADGGGTKLICLSGHIKNRGLYEVNLGTPLEEIIYGEQYGGGSATGRALKFIHFGGQSGPIGAVATLRDCLYSYEDLWAHDLSVGSGAIVVMDDSVNVVDYLVHVAAFFAHESCGKCTPCRLGTTRILELLSKFNRNEATASDLPRLEKMLTHVTRLSACGLGQSVANPMKSALALFPEEFETTAETEIYATSKGGWLEHHHHHH”, “not soluble”.
With “MKTYYEQDANVGLLQGKTVAVIGYGSQGHAQAQNLRDSGVEVVVGVRPGKSFEVAKADGFEVMSVSEAVRTAQVVQMLLPDEQQAHVYKAEVEENLREGQMLLFSHGFNIHFGQINPPSYVDVAMVAPKSPGHLVRRVFQEGNGVPALVAVHQDATGTALHVALAYAKGVGCTRAGVIETTFQEETETDLFGEQAVLCGGVTALVKAGFETLTEGGYRPEIAYFECLHELKLIVDLMYEGGLTNMRHSISDTAEFGDYVTGSRIVTDETKKEMKRVLTEIQQGEFAKKWILENQAGRPTYNAMKKAEQNHQLEKVGEELREMMSWIHAPKELVKK”, the “soluble on expression in E. coli” value is “not soluble”.
As for “MATIPSVVREITLVGEQIFDHTQVVRAEIDRFVERFERNERHREFDGILRASHALVESSETPVEGLFDMGKMEHMTQCVDDITKKLQTLVEPKYQKEHDVYLEKVKEDQKKYVDVCREQAMNKMRSMTAHR”, the “soluble on expression in E. coli” value is reported as “not soluble”.
Take “MANEIPTKGILKSEALKQYIMETSAYPREHELLKELRKATVQKYGNLSEMEVPVDEGHFLSMLVKIMNAKNTIEIGVFTGYSLLTTALALPEDGRITAIDIDKEAYEVGLEFIKKAGVDHKINFIHSDGLKALDQLVNDKCEFDFAFADADKSSYVNFHERLLKLVKVGGIIAFDNTLWFGFVAEDEDGVPEHMREYRAALIEFNKKLALDPRVEVSQISIGDGITLCRRLV”: the “soluble on expression in E. coli” value is “soluble”.
As for “MSLNIAVMEKGAAQPGDRLLSDVSLPALVIHNQALEHNIRWMQQFVTDSGAELAPHGKTSMVPALFRRQLDAGAWGMTLATAIQTQTAYAHGVKRVLMANQLVGAPNMAVIASLLADPMFEFHCMVDHPDNVAALGEFFAAHGLRLNVMIEYGVPGGRCGCRSEAEVLALADAVQAQPALALSGIEGYEGVIHGDQAIAGIKAFAASLVSLAVNLQDKGAFALDRPIVTASGSAWYDLIAEAFDAQAVRDRFLSVLRPGSYVVHDHGIYKDAQCCVLDRRAELSEALRPALEVWAHVQSMPEPGFAVIAMGKRDVAYDAGLPNPLLRYTPGVSSAPGDDVSACKVTAVMDQHAFMTVAADCELKVGDIISFGTSHPCLTFDKWRSGCLVDDDLRVIEPFHTCFEGHHHHHH”, the “soluble on expression in E. coli” value is listed as “not soluble”.
Regarding “MNIKYSGIENRFETAILKKNGVRSGFVSFAPNLAAVKLNDYAKVRKRITKTKQKADIVIVMFHGGAEGKQAEHLPFDTEIFYGENRGNVVEFARLAVDSGADVVFGQGPHVTRAVELYRDRFISYSGGNFATYGAINTSGISGIAPIFKIITDKQGRFVSGNIIPITQVGDKIPKIDPEKTVIGRIIYLNRSDFPKGNGLDVSPDGSITRR”, the “soluble on expression in E. coli” value is “not soluble”.
In the case of “MSLGDAADPREMRKTFIVPAIKPFDHYDFSRAKIACNLAWLVAKAFGTENVPEELQEPFYTDQYDQEHIKPPVVNLLLSAELYCRAGSLILKSDAAKPLLGHDAVIQALAQKGLYVTDQEKLVTERDLHKKPIQMSAHLAMIDTLMMAYTVEMVSIEKVIACAQQYSAFFQATDLPYDIEDAVMYWINKVNEHLKDIMEQEQKLKEHHTVEAPGGQKEGHHHHHH”, the “soluble on expression in E. coli” value is “soluble”.
As for “MGSDKIHHHHHHMAVTVENLTKRYGEKVALDNVSFDVKKGDILGIIGKSGAGKTTLIKILRGVESFDEGKIEVCGKTENLREITAIHLQRNFALWAEPAIYNIIRKLYAVRTDSDEGLPLEEEMEEYRKDATEILKLVGLEHKKDAYSNILSGGEKQRLILGRQLAKIYAKNGDGVLLLDEPATMACPASKQILLDVLKNINEKLGVTIIVTSHLPEIHKYLCKSCILIENGKIIMKDTPEKVVDEFLKDMVEAYDRLSKPTDKTVVEVEDASKRYYVVNGGETLNLKDISFKVKEKEILSILGPSGTGKSVILRLLAGLEAPDKGVVKLEGIDLKDFGWNRMNLRRKIGIMHQEFSLAHYLTVNELLKYRLGVKSIETVESAKLKAAELGISPKMVDGLYQLLDLPETEMRNKLDKIGISEMVVRKLFPAKPVEYDANELLEALDLNKETLNKKPTELSGGEKVRVAMALQLALEPDILLLDEPFGDLDPLTLREVSNYLKKINDTVGTTIILISHHVELIKEISDRAILIDEGKLLMNGNPEEICEKFIERSNSKFMNQ”, the “soluble on expression in E. coli” value is reported as “not soluble”.
Consider “MSLDISFQIQDAVASVIRAPLASPFRIATGQHDELENVFLKLTTRDGVSGYGEAAVASHITGETVPGTLANLQNAAAALRGQTVDDAESACRQFAAAFAGNHAGLAALEMALLDLSSRVRGIPFYRLFAPVAALEPRLAFSTDITVVIGSLDEARATAREFASRGFKAFKIKIGRDEQLDLARVLAVHEIAPDSQIILDANMGFSAGSMLAFLDRLAAKGVRPVLLEQPVPKMDWDGLSEITAALTGSETLVCADESVGSLADARRAIDSNAVSAINVKFMKSGILEGAEIARLAASRGIRLMLGAMMESALAVTASAHFAAGLACFDYLDMDTTFFLKGELAHSPYLDEHGRFDLHDAGPGIGVEPRFSEGHHHHHH”, for which the “soluble on expression in E. coli” value was “soluble”.
In the case of “MSLTIKLITFDLDDTLWDTAPVIVSAEATLRQWLTEHAPNLGGVPVEHLWAIRERVLLAQPNLKHRISALRRQVLFHALEEAGYDHAQANQLADQSFEVFLHARHQLEIFPEVQPTLEALANHFALGVVTNGNADVRRLGLADYFKFALCAEDIGIAKPDARLFHEALQRGEATADTAVHIGDHPGDDIAGAQQAGLRAIWFNPNGKTWEAEHAPDAEIRSLNELPGLLARWHRGAEGHHHHHH” it was “soluble”; in that of “MVDIDSAVEAARRRGARRIVLQLPEGMLQYGLYIAKCFEEMLGGAAQVYLHADPTFGACDLHYGELDTTVRPDLIVHVGHSPYPAELAHEGLEPRGRVVYVRALSKSQLPLDALREAAGLLASRYGVRRVGIATTAQHTHLAEKAAEVLRGEGLEVAVPPGLRPYFGAAQVLGCDYRLARGVRADGFVYVGGGVFHPLGLYLATLKPVVQVDPYRGVSEDLTREGEKLYRSRLYRVSQSIGARRWGIIVGLKSGQYRPWLVEKLARAIESAGGEYLLVASEVTTLSQLVAIDNPWFEAFTVTSCPRLPTDDFWSYEKPVLTPGEAMMALEGRLEPYRFPWAAALEHHHHHH”, “not soluble”.
For the sequence “NGMDEEQRQKRRRIEVALIEYRETLEEQGMKNPEEIERKVEINRKRLEVDYGLS”, the “soluble on expression in E. coli” value is reported as “soluble”.
“MEDNIRIGKIILNLSNKISRQLNKEASAFGLTGVQAKLIGFIHHRSSTQDIFQKDIEEEFDIRRSSVTSALQLMEKKGYIKRVSVSDDARLKKIVLTEKGLELDKKVYDAIIKLENSLINEFDNDELHVLIDSLDRISKKIVDLEHHHHHH”: the “soluble on expression in E. coli” value is “soluble”.
